Test results taken from article doi:10.1101/2020.07.03.182295 (bioRxiv, 2020).

Target: the molecule itself
Assay: SEC

B1: R54C αA-crystallin (recombinant human) (natural protein)
chain: MDVTIQHPWFKRTLGPFYPSRLFDQFFGEGLFEYDLLPFLSSTISPYYRQSLFCTVLDSGISEVRSDRDKFVIFLDVKHFSPEDLTVKVQDDFVEIHGKHNERQDDHGYISREFHRRYRLPSNVDQSALSCSLSADGMLTFCGPKIQTGLDATHAERAIPVSREEKPTSAPSS
binding result: binds
